Reference: patent publication US20140011209, “Aptamers for Prion Diagnostics and Aptamer Binding Detection System” (Aptrix Biosystems LLC, published 2014)

Tests used:
[1] = target: T1, RVV-X (Russell's viper venom factor X activator) (UniProt Q7LZ61;Q4PRD1;Q4PRD2 Q7LZ61:189-619,Q4PRD1:24-146,Q4PRD2:25-158); test: EMSA; conditions: tags: Haematologic Technologies; label: 32P end; three loops, two bulges, three stems
[2] = target: RVV-X (Russell's viper venom factor X activator) (UniProt Q7LZ61;Q4PRD1;Q4PRD2 Q7LZ61:189-619,Q4PRD1:24-146,Q4PRD2:25-158); test: EMSA; conditions: tags: Haematologic Technologies; label: 32P end
[3] = target: T1, RVV-X (Russell's viper venom factor X …); test: EMSA; scrambled SEQ 1, negative control; conditions: tags: Haematologic Technologies; label: 32P end
[4] = target: T1, RVV-X (Russell's viper venom factor X …); test: EMSA; room temperature, 1 h; conditions: tags: Haematologic Technologies, label: 32P end
alpha-Thrombin = alpha-Thrombin (Homo sapiens, UniProt P00734;P00734 P00734:328-363,P00734:364-622); test: EMSA; conditions: tags: Haematologic Technologies; label: 32P end; two loops and two short stems
[5] = target: T1, RVV-X (Russell's viper venom factor X …); test: EMSA; prion binding component alone; conditions: tags: Haematologic Technologies; label: 32P end; two loops and two short stems

B1: Fus74_10_5 (ssRNA)
RNA: GACCGGGGAGACAAGACUAGACGCUCAACUACGAACUCAUGACACAAGGAUGCAAUCUCAUCCCGACCUUUGCCUAAACAGCUGAUGGUUUACAAAGGAAGCACG
[1]
  Kd: 63.9 nM

B2: SEQ ID NO. 4 (ssRNA)
RNA: UGGCGACGAGGCGGCAGGCAAUGACACAUUAGCAGACCCUGGUUAAUGAGCGAA
[2]
  Kd: 158 nM

B3: SEQ ID NO. 1 (ssRNA)
RNA: UAGCGACAAGGCGACAAGCAAUGACACAUUAACAGACCCUGGUUAGUGAACGAA
[2]
  Kd: 30 nM

B4: Scrambled SEQ ID NO. 107 (ssRNA)
RNA: GGAGGCCAACUAAUAACGCCAGAACUAUAGGAAUCCCAUGAAGCGAGCGAGAAUU
[3]
  Kd: 131 nM

## AAAGCGACCGACCUUUGCCUAAACAGCUGAUGGUUUACAAAGGAAGCACG (ssRNA) [74, 5 from 5']
[4]
  Kd: 374 nM

## GACCGACCUUUGCCUAAACAGCUGAUGGUUUACAAAGGAAGCACG (ssRNA) [74, 10 from 5']
[4]; stem-loop with bulge
  Kd: 250 nM

B5: SEQ ID NO. 6 (ssRNA)
RNA: UGGCGGAUACUCUGCGAAGGGCGAACCCAACAUUUCGCACAGGACCGACUACUGCA
[2]
  Kd: 19 nM

B6: B-end (PrPSc binding region) (ssRNA)
RNA: GGGAGACAAGACUAGACGCUCAACUACGAACUCAUGACACAAGGAUGCAAUCUCAUCCCG
alpha-Thrombin
  Kd: 4220 nM
[5]
  Kd: 170 nM

## AAAGCGACCGACCUUUGCCUAAACAGCUGAUGGUUUACAAAGGAA (ssRNA) [74, 5 from both]
[4]
  Kd: 426 nM

B7: SEQ ID NO. 2 (ssRNA)
RNA: AAGGCGAGGUGCGACCCGCACGUGGCAUCUGAUAGCACAUGAAAAGGCACGUCA
[2]
  Kd: 23 nM

## UCCUCAAAGCGACCGACCUUUGCCUAAACAGCUGAUGGUUUACAAAGGAA (ssRNA) [74, 5 from 3']
[4]
  Kd: 352 nM

B8: 74 alone (ssRNA)
RNA: UCCUCAAAGCGACCGACCUUUGCCUAAACAGCUGAUGGUUUACAAAGGAAGCACG
[2]
  Kd: 75 nM

## UCCUCAAAGCGACCGACCUUUGCCUAAACAGCUGAUGGUUUACAA (ssRNA) [74, 10 from 3']
[4]
  Kd: 301 nM

B9: SEQ ID NO. 3 (ssRNA)
RNA: UCUUCCAACGACCAUGCGGCGACAAGCGACUACAAGAGGGUACCCACGGACAGCA
[2]
  Kd: 94.7 nM
